For one assay, the target named is T1, Human CEACAM8 (human, UniProt P31997 35-320, limits assumed).
T1 sequence (looked up): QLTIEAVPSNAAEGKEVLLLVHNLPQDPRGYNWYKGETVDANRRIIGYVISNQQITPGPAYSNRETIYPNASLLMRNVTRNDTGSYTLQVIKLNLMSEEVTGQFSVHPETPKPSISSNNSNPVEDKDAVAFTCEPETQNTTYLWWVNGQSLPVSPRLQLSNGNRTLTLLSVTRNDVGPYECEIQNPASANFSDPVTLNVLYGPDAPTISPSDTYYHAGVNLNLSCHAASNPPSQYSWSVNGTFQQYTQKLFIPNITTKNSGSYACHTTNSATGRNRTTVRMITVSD
As to the kind of experiment: SPR, 37C, pH 7.4. (In general: In SPR one partner is held on a chip, and binding of the other changes the refractive index at the surface.)

Assay [1] has as its target T2, human CEACAM1 on Ba/F3 cells (human, UniProt P13688 35-526).
T2 construct: whole, on cells
T2 sequence (looked up): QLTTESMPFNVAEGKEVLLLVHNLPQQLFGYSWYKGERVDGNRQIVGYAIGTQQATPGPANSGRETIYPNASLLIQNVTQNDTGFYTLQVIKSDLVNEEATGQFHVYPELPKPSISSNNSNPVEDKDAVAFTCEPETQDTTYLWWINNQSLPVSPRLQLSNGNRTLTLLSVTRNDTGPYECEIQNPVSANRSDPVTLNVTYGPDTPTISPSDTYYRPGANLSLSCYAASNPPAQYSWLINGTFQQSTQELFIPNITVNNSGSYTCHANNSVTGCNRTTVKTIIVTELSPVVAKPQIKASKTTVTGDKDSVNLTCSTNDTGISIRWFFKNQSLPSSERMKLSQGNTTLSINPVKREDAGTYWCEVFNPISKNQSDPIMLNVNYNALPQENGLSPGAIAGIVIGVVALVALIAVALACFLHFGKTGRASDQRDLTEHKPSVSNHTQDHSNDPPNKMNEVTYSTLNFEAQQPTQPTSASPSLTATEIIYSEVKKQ
The assay can be described thus: flow cytometry on Ba/F3 cells expressing human CEACAM1, fold over background (FOB), 5-fold dilutions from 1600 nM. On the procedure: To examine the binding specificity of the TriNKETs to CEACAM5 compared to other CEACAM family members, Ba/F3 cells were engineered to express one of human CEACAM1, CEACAM6, CEACAM8, or cynomolgus CEACAM5. CEACAM5 TriNKETs were evaluated by flow cytometry starting at 1600 nM followed by 7 5-fold dilutions.
In general terms: A flow cytometer gives signals particle by particle.

Another assay concerns the target T3, human FcγRIIA H131 (human, UniProt P12318 34-218, limits assumed).
T3 sequence (looked up): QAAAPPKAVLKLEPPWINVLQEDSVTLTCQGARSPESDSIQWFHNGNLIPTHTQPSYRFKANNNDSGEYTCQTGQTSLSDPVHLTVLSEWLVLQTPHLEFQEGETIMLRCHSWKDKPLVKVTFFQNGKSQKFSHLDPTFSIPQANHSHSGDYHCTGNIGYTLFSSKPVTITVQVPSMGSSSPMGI
As to the kind of experiment: SPR, AB0621 on Protein A chip, 25C, pH 7.4; reference not named. Here is the method:
(§1) AB0621 was captured onto a Protein A chip (Cytiva, #29127556). Human FcγRs were titrated over captured AB0621 as 3-fold serial dilutions starting from 300 nM for FcγRI, 1000 nM for FcγRIIA R131 and H131, and 3000 nM for FcγRIIB and FcγRIIIB. Association was monitored for 120 sec and dissociation was monitored for 180 sec. Assays were run at 25° C. at pH 7.4. The surface of the chip was regenerated with 10 mM glycine pH 1.5 for 20 sec at 30 μL/min.

Another assay addresses T4, human FcγRIIA R131 (human, UniProt P12318 34-218, limits assumed).
T4 sequence (looked up): T3 sequence (looked up) with H134R
The description is as above. Here is the method: as §1

For the next assay, the target named is T5, human FcγRIIB (human, UniProt P31994 43-217, limits assumed).
T5 sequence (looked up): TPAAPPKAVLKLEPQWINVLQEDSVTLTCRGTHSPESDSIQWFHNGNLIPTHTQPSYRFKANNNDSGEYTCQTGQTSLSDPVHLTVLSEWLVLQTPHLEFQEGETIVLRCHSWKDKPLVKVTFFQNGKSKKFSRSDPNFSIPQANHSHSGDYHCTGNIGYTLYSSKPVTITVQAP
The assay is described as above. On the procedure: as §1

The next assay has as its target human FcγRI (human, UniProt P12314 16-288, limits assumed). The assay is described as above. Here is the method: as §1
The target of a further assay is T6, Cynomolgus CEACAM5 (cynomolgus monkey).
T6 construct: also called cyno CEACAM5
As to the kind of experiment: SPR, anti-hFc capture, 37C, pH 7.4. Here is the method: To determine the affinity and cross-reactivity of CEACAM5 TriNKET molecules, AB0411, AB0466, or AB0621 TriNKETs were captured using an anti-human Fc capture antibody (Cytiva, #BR100839) immobilized onto a Biacore CM5 standard surface sensor chip following manufacturer instructions. Human or cynomolgus CEACAM5 were titrated over captured AB0411, AB0466, and AB0621 as 2-fold serial dilutions starting from 300 nM. Association was monitored for 300 sec and dissociation was monitored for 600 sec. The assay was run at 37° C. at pH 7.4 and 6.0. The surface of the CM5 chip was regenerated with 10 mM glycine pH 1.5 for 20 sec at 100 μL/min.

Assay [2] addresses T7, human CD16A (FcγRIIIA) V158 (human, UniProt P08637 17-208, limits assumed, biotinylated in the assay of Table 21).
T7 construct: also called CD16A (V158/V176)
The assay can be described thus: SPR (Biacore), AB0264 captured on a CM5 chip with immobilised human CEACAM5; 2 uM CD16A, then premix of 2 uM CD16A and 2 uM NKG2D-His. An excerpt:
This surface was used to first stably capture AB0264 onto the chip surface. […] The ratio of binding signals (which are proportional to MWs) was approximately 5:1:1 which is consistent with a 1:1:1 molar stoichiometry of complex bound on the CEACAM5 surface.

Changes are numbered by the printed parent chain.

T7 sequence (P08637 17-208 F176V limits assumed): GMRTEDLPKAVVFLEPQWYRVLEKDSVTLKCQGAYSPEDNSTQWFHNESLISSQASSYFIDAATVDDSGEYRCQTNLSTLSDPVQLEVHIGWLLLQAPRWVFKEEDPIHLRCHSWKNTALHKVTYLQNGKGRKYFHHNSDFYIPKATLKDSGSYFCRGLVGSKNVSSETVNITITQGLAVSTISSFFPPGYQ
Sequence of human FcγRI (P12314 16-288 limits assumed): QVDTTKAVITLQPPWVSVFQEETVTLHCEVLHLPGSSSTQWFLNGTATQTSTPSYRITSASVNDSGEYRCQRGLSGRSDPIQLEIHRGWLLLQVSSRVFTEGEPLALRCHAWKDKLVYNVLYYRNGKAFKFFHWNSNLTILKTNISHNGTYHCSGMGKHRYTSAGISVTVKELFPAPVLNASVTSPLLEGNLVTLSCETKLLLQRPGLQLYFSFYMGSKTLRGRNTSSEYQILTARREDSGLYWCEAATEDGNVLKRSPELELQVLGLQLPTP

B1: AB0621 F3' CEACAM5 TriNKET (bispecific antibody, human IgG1, kappa)
chain: DIVMTQSPDSLAVSLGERATINCKSSHSLLYGNFQNNYLAWYQQKPGQPPKLLIYWASTRESGVPDRFSGSGSGTDFTLTISSLQAEDVAVYYCQQYYSYPYTFGCGTKLEIKGGGGSGGGGSGGGGSGGGGSQVQLVQSGAEVKKPGASVKVSCKASGYTFTAYTIHWVRQAPGQCLEWMGYINPSSGYTEYNQKFKDRTTLTADTSISTAYMELSRLRSDDTAVYYCTREGGLLWFDYWGQGTLVTVSSGSDKTHTCPPCPAPELLGGPSVFLFPPKPKDTLMISRTPEVTCVVVDVSHEDPEVKFNWYVDGVEVHNAKTKPREEQYNSTYRVVSVLTVLHQDWLNGKEYKCKVSNKALPAPIEKTISKAKGQPREPRVYTLPPCRDELTKNQVSLTCLVKGFYPSDIAVEWESNGQPENNYKTTPPVLVSDGSFTLYSKLTVDKSRWQQGNVFSCSVMHEALHNHYTQKSLSLSPG
heavy: EVQLVESGGGLVKPGGSLRLSCAASGFTFSSYSMNWVRQAPGKGLEWVSSISSSSSYIYYADSVKGRFTISRDNAKNSLYLQMNSLRAEDTAVYYCARGAPIGAAAGWFDPWGQGTLVTVSSASTKGPSVFPLAPSSKSTSGGTAALGCLVKDYFPEPVTVSWNSGALTSGVHTFPAVLQSSGLYSLSSVVTVPSSSLGTQTYICNVNHKPSNTKVDKKVEPKSCDKTHTCPPCPAPELLGGPSVFLFPPKPKDTLMISRTPEVTCVVVDVSHEDPEVKFNWYVDGVEVHNAKTKPREEQYNSTYRVVSVLTVLHQDWLNGKEYKCKVSNKALPAPIEKTISKAKGQPREPQVCTLPPSRDELTENQVSLTCLVKGFYPSDIAVEWESNGQPENNYKTTPPVLDSDGSFFLYSWLTVDKSRWQQGNVFSCSVMHEALHNHYTQKSLSLSPG
light: DIQMTQSPSSVSASVGDRVTITCRASQGISSWLAWYQQKPGKAPKLLIYAASSLQSGVPSRFSGSGSGTDFTLTISSLQPEDFATYYCQQGVSFPRTFGGGTKVEIKRTVAAPSVFIFPPSDEQLKSGTASVVCLLNNFYPREAKVQWKVDNALQSGNSQESVTEQDSKDSTYSLSSTLTLSKADYEKHKVYACEVTHQGLSSPVTKSFNRGEC
B1: the binding result is “no binding (tested: up to 600 and 1200 nM)” in the assay with Human CEACAM8; “no binding (tested: 1600 nM)” in assay [1]. For the same molecule, the KD/KD ref turned out to be 0.68 fold with human FcγRIIA H131, 0.68 fold in the assay with human FcγRIIA R131, 0.94 fold with human FcγRIIB and 0.64 fold in the assay with human FcγRI. For the same molecule, in the assay with Cynomolgus CEACAM5, the Kd (as a rule, the concentration at which binding is half-saturated) is 14 nM. In the assay with Cynomolgus CEACAM5, the kon – broadly, the rate constant with which the complex forms – stood at 61000 M⁻¹ s⁻¹.

B2: AB0264 F3' CEACAM5 TriNKET (bispecific antibody, human IgG1, kappa)
chain: B1 chain with S210P
heavy: B1 heavy
light: B1 light
B2: the binding result in assay [1] is reported as “no binding (tested: 1600 nM)”; in assay [2], “binds”.

Source of the values: patent US20240124607A1 (Merck Sharp & Dohme, published 2024).
